# In patent publication US20240352132A1:
# pKd: −log10 of the molar value.
# Assays:
# [1] = target: HGFR protein extracellular domain with the His tag (human) (UniProt P08581); experiment: competition ELISA, blocks bio-HGF-His on coated HGFR-His
# [2] = target: human EGFR protein extracellular domain with the His tag (human) (UniProt P00533); experiment: SPR Biacore T200, antibody captured on Protein A, antigen in flow, 1:1 fit
# [3] = target: HGFR protein extracellular domain with the His tag (human) (UniProt P08581); experiment: as above
substance,measurement,setting,value
MCLA (bispecific antibody),IC50,[1],1.36 µg/mL
same,Max (%),[1],94.1%
same,pKd,[2],7.16
same,koff,[2],0.00473 s⁻¹
same,kon,[2],68500 M⁻¹ s⁻¹
same,pKd,[3],7.99
same,koff,[3],0.000303 s⁻¹
same,kon,[3],29500 M⁻¹ s⁻¹
